T1: AsphyA D422R, full length (Avena sativa, UniProt P06593 1-1129, D422R, phycocyanobilin chromophore assembled)
T1 construct: Avena sativa phytochrome A, full length, with D422R; source: phycocyanobilin added in vitro
T1 sequence (looked up): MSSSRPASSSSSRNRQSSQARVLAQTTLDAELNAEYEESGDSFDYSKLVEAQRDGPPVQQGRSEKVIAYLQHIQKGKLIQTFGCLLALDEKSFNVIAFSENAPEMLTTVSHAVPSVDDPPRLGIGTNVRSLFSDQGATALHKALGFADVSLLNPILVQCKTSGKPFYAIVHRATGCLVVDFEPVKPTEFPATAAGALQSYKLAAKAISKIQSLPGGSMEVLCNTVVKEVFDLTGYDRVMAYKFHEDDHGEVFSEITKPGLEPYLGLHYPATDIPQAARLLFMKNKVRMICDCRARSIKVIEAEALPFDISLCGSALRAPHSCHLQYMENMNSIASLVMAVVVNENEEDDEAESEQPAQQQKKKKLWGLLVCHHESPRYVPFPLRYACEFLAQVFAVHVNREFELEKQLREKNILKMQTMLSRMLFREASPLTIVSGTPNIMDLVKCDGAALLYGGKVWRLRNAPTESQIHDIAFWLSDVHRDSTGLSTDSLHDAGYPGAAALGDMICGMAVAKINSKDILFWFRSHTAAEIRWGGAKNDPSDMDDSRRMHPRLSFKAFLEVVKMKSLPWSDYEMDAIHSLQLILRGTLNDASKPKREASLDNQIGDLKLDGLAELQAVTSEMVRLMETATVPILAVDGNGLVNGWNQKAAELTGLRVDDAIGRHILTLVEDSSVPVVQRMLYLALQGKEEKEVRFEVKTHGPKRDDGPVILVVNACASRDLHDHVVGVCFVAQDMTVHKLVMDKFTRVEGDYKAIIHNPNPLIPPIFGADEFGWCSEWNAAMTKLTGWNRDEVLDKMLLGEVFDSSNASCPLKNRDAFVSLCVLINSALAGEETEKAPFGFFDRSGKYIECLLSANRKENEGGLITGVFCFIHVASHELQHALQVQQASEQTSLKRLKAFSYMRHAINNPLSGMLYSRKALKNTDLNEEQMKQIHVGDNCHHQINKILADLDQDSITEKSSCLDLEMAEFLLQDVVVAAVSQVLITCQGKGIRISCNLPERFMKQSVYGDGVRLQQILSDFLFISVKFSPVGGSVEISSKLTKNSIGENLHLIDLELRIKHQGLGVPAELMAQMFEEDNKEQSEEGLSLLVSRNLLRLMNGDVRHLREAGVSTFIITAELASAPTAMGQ

T2: AsphyA K411L, full length (Avena sativa, UniProt P06593 1-1129, K411L, phycocyanobilin chromophore assembled)
T2 construct: Avena sativa phytochrome A, full length, with K411L; source: phycocyanobilin added in vitro
T2 sequence (looked up): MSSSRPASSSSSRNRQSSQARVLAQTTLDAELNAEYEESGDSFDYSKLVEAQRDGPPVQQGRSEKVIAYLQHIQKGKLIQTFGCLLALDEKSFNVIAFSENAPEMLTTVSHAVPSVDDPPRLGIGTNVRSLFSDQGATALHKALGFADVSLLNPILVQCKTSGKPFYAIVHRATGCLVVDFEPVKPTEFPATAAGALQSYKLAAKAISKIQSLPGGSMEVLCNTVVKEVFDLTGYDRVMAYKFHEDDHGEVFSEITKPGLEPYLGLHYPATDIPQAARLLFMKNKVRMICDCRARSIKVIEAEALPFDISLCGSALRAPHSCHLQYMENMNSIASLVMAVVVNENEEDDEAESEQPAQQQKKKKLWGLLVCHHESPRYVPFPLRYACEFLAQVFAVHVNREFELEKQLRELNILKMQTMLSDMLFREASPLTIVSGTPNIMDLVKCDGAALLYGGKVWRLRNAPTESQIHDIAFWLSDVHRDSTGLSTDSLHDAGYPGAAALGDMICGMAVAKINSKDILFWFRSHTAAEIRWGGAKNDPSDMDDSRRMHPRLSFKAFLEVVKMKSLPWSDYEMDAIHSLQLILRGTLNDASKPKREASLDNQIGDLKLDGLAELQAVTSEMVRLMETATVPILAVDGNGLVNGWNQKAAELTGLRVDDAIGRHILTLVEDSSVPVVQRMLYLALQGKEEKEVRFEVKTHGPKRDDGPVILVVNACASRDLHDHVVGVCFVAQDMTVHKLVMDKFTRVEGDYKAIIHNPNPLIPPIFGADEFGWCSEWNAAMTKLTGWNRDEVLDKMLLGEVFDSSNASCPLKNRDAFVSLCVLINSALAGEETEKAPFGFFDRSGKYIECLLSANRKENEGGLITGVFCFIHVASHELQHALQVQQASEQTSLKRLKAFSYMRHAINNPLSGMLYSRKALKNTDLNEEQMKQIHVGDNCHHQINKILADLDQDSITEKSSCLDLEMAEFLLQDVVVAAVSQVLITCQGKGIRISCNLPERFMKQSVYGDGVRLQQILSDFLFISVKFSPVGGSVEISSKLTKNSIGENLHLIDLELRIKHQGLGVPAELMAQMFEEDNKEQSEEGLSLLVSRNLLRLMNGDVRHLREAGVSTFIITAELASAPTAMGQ


Columns and labels:
[1] = molecular target: T1, AsphyA D422R, full length; assay: pull-down; GST/strep-fused interacting protein (1.0 μg) held on glutathione resin, phytochrome (1.0 μg) in solution, Pr and Pfr forms both tested; 60 min at 4 °C in pull-down buffer (100 mM Tris-HCl pH 7.8, 1 mM EDTA, 150 mM NaCl, 100 μg/ml BSA); western blot with oat22 and anti-GST; conditions: both partners purified
[2] = molecular target: T2, AsphyA K411L, full length; assay: as above; conditions: both partners purified

binding result [1]	binding result [2]	Binder
binds	binds	GST/strep-fused FHL (natural protein, UniProt A8MR65 1-201, looked up, FHL, which with FHY1 takes part in the nuclear localization of phyA; not shown: GST, N-terminal, kept) MDDADKSCSPSLDHSDINDPMIVAVESLDTSKKRKLHAEESDLLPLPKHFCSEHQASLVNSSCPSSVIDYAECSYAMENTKTSDEASSSASFTGPSLYMFKDSIYSTGSSSSGYAATSSIEQCFSKVDHKTQEDTQDFTHMEFIYHDSEFAVEDLQEVLNPVESYILSSARWSVSNQDSKEATTKPTIDQEFEQYFSTLMM
binds	binds	GST/strep-fused PIF3 (natural protein, UniProt O80536 1-524, looked up, Probably Arabidopsis PIF3, as PIF1 and PIF4 are called Arabidopsis; not shown: GST, N-terminal, kept) MPLFELFRLTKAKLESAQDRNPSPPVDEVVELVWENGQISTQSQSSRSRNIPPPQANSSRAREIGNGSKTTMVDEIPMSVPSLMTGLSQDDDFVPWLNHHPSLDGYCSDFLRDVSSPVTVNEQESDMAVNQTAFPLFQRRKDGNESAPAASSSQYNGFQSHSLYGSDRARDLPSQQTNPDRFTQTQEPLITSNKPSLVNFSHFLRPATFAKTTNNNLHDTKEKSPQSPPNVFQTRVLGAKDSEDKVLNESVASATPKDNQKACLISEDSCRKDQESEKAVVCSSVGSGNSLDGPSESPSLSLKRKHSNIQDIDCHSEDVEEESGDGRKEAGPSRTGLGSKRSRSAEVHNLSERRRRDRINEKMRALQELIPNCNKVDKASMLDEAIEYLKSLQLQVQIMSMASGYYLPPAVMFPPGMGHYPAAAAAMAMGMGMPYAMGLPDLSRGGSSVNHGPQFQVSGMQQQPVAMGIPRVSGGGIFAGSSTIGNGSTRDLSGSKDQTTTNNNSNLKPIKRKQGSSDQFCGSS
binds	binds	GST/strep-fused FHY1 (far-red elongated hypocotyl 1) (natural protein, UniProt Q8S4Q6 1-202, looked up, FHY1 (far-red elongated hypocotyl 1); not shown: GST, N-terminal, kept) MPEVEVDNNNEKPSEINSFHHMIISSSKNVLKMEEVEVSKKRKFQTDQSDELSLLPLSKHTCFANVACSENTNGNSEIDTEYSMSSYVNSTTSMECNNDIEMKEESSGSCGEDKMISFESHLDYIYGTQNLEDFSEKVIENILYLDEQEEEEEDAKGCSSNAAKFVLSSGRWTVNQDDSTLHETKKPTIDQEFEQYFSTLML
